Laboratory results as given in paper PMC7954794, “Protein context shapes the specificity of SH3 domain-mediated interactions in vivo” (Nature Communications, 2021).

Tested on: 575 putative partners (preys) of 22 WT SH3-containing proteins
Assay: DHFR-PCA on solid medium, WT and SH3-deleted baits (Fig. 1B)
Type: cell-based, Saccharomyces cerevisiae
Conditions: number of PPIs; SH3 domain in its own protein; DHFR-PCA; Fig2D,S2F
How it was run: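 In S. cerevisiae, 22 SH3-containing baits fused genomically to DHFR F[1,2], either WT or with each SH3 replaced via CRISPR by a poly-Gly/Ser linker, screened against 575 DHFR F[3] preys plus 40 negative controls in 1536 arrays, preys duplicated at randomized positions.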

B1: PIN3 (protein, UniProt Q06449 2-215, looked up)
[PSI+] inducibility protein 3: SASLINRSLTNIRTELDFLKGSNVISNDVYDQINKSLPAKWDPANAPRNASPASLEYVEALYQFDPQQDGDLGLKPGDKVQLLEKLSPEWYKGSCNGRTGIFPANYVKPAFSGSNGPSNLPPPPQYKAQELQQIPTQNSAASSYQQQPFPPPSTNYYQQPQQQPQQAPPPQQQQQQQQHQSSHSHLKSFGSKLGNAAIFGAGASIGSDIVNNIF
SH3-dependent PPIs: 13

B2: SHO1 (protein, UniProt P40073 1-367, looked up)
High osmolarity signaling …: MSISSKIRPTPRKPSRMATDHSFKMKKFYADPFAISSISLAIVSWVIAIGGSISSASTNESFPRFTWWGIVYQFLIICSLMLFYCFDLVDHYRIFITTSIAVAFVYNTNSATNLVYADGPKKAAASAGVILLSIINLIWILYYGGDNASPTNRWIDSFSIKGIRPSPLENSLHRARRRGNRNTTPYQNNVYNDAIRDSGYATQFDGYPQQQPSHTNYVSSTALAGFENTQPNTSEAVNLHLNTLQQRINSASNAKETNDNSNNQTNTNIGNTFDTDFSNGNTETTMGDTLGLYSDIGDDNFIYKAKALYPYDADDDDAYEISFEQNEILQVSDIEGRWWKARRANGETGIIPSNYVQLIDGPEEMHR
SH3-dependent PPIs: 2

B3: PEX13 (protein, UniProt P80667 1-386, looked up)
Peroxisomal membrane protein …: MSSTAVPRPKPWETSASLEEPQRNAQSLSAMMTSNQQDSRPTEESNNSNSASESAPEVLPRPAALNSSGTYGESNTIPGIYGNSNYGIPYDNNPYSMNSIYGNSIGRYGYGGSYYGNNYGSFYGGGYGAGAGYGMNNGSGLGESTKATFQLIESLIGAVTGFAQMLESTYMATHNSFFTMISVAEQFGNLKEMLGSFFGIFAIMKFLKKILYRATKGRLGIPPKNFAESEGSKNKLIEDFQKFNDSGTINSNEKATRRKISWKPLLFFLMAVFGFPYLLNKFITKLQTSGTIRASQGNGSEPIDPSKLEFARALYDFVPENPEMEVALKKGDLMAILSKKDPLGRDSDWWKVRTKNGNIGYIPYNYIEIIKRRKKIEHVDDETRTH
SH3-dependent PPIs: 1

B4: BOI1 (protein, UniProt P38041 1-980, looked up)
BEM1-interacting protein 1: MSLEGNTLGKGAKSFPLYIAVNQYSKRMEDELNMKPGDKIKVITDDGEYNDGWYYGRNLRTKEEGLYPAVFTKRIAIEKPENLHKSPTQESGNSGVKYGNLNDSASNIGKVSSHQQENRYTSLKSTMSDIDKALEELRSGSVEQEVSKSPTRVPEVSTPQLQDEQTLIQEKTRNEENTTHDSLFSSTADLNLSSESLKNISKSNISTKSLEPSSESVRQLDLKMAKSWSPEEVTDYFSLVGFDQSTCNKFKEHQVSGKILLELELEHLKELEINSFGIRFQIFKEIRNIKSAIDSSSNKLDADYSTFAFENQAAQLMPAATVNRDEIQQQISSKCNKLSSESSDRKSSSVTTELQRPSSVVVNPNFKLHDPAEQILDMTEVPNLFADKDIFESPGRAPKPPSYPSPVQPPQSPSFNNRYTNNNARFPPQTTYPPKNKNPTVYSNGLIPNSSTSSDNSTGKFKFPAMNGHDSNSRKTTLTSATIPSINTVNTDESLPAISNISSNATSHHPNRNSVVYNNHKRTESGSSFVDLFNRISMLSPVKSSFDEEETKQPSKASRAVFDSARRKSSYGHSRDASLSEMKKHRRNSSILSFFSSKSQSNPTSPTKQTFTIDPAKMTSHSRSQSNSYSHARSQSYSHSRKHSLVTSPLKTSLSPINSKSNIALAHSETPTSSNNKEAVSQPSEGKHKHKHKHKSKHKHKNSSSKDGSSEEKSKKKLFSSTKESFVGSKEFKRSPSELTQKSTKSILPRSNAKKQQTSAFTEGIRSITAKESMQTADCSGWMSKKGTGAMGTWKQRFFTLHGTRLSYFTNTNDEKERGLIDITAHRVLPASDDDRLISLYAASLGKGKYCFKLVPPQPGSKKGLTFTEPRVHYFAVENKSEMKAWLSAIIKATIDIDTSVPVISSYATPTIPLSKAQTLLEEARLQTQLRDAEEEEGRDQFGWDDTQNKRNSNYPIEQDQFETSDYLESSAFEYPGGRL
SH3-dependent PPIs: 3
